According to US20250340623A1 (AC IMMUNE, published 2025):

Key:
[1] = biological target: T1, monomeric alpha-synuclein (UniProt P37840 1-140); test: SPR, captured bAb
Description: (§1) Any non-covalently bound antibodies were removed by three successive regenerations of 10 mM Glycine pH 1.7 (GE Healthcare, 28-9950-84). Immobilization levels were evaluated following ethanolamine capping (Bound) and finally following regeneration (Final). Non-covalent immobilization of alpha-synuclein biparatopic antibodies on flow cell 2 of channels 1-8 was performed at a final concentration of 5 μg/mL, diluted in 10 mM sodium acetate pH 5.5 (GE Healthcare, BR-1003-52). Non-covalent immobilization of an isotype control antibody on flow cell 1 of channels 1-8 was performed at a final concentration of 5 μg/mL, diluted in 10 mM sodium acetate pH 5.5 (GE Healthcare, BR-1003-52).
(§2) Binding affinity of alpha-synuclein biparatopic antibodies to monomeric or fibrillar alpha-synuclein species was performed using a single-cycle kinetics method. The instrument was primed with 1×HBS-P+ buffer (10× stock from GE Healthcare, BR-1003-52 diluted in Milli-Q water). Injections of monomeric alpha-synuclein (Boston Biochem, SP-485), increasing in concentration from 0.62-50 nM prepared from serial 2-fold dilutions, were performed with contact times of 300 sec/injection at a flow rate of 30 μL/min. A dissociation phase of 900 sec followed the final 50 nM injection. Regeneration of the sensor to the goat anti-human antibody layer was achieved using 3 regenerations of 10 mM Glycine pH 1.7. […] Regeneration of the sensor to the goat anti-mouse antibody layer was achieved using 3 regenerations of 10 mM Glycine pH 1.7. Results obtained from single-cycle kinetics were evaluated by Biacore 8K evaluation software with 1:1 binding homogenous Langmuir model with a preceeding buffer injection as a blank subtraction. The following kinetic parameters were obtained: on-rate (ka), off-rate (kd), affinity constant (KD, ratio of kd by ka), maximum response (Rmax), and goodness of fit (Chi2).
(§3) Kinetic constants were determined from 1:1 homogenous binding models for all cases.

alpha-synuclein fibrils [2] = biological target: T2, alpha-synuclein fibrils (UniProt P37840 1-140); test: SPR, captured bAb
Description: as §1, §2, §3

[3] = biological target: T1, monomeric alpha-synuclein; test: SPR, captured bAb; head says nM, kd/ka gives M
Description: as §1, §2, §3

alpha-synuclein fibrils [4] = biological target: T2, alpha-synuclein fibrils; test: SPR, captured bAb; head says nM, kd/ka gives M
Description: as §1, §2, §3

Binder | koff [1] | kon [1] | koff (alpha-synuclein fibrils [2]) | kon (alpha-synuclein fibrils [2]) | Kd [3] | Kd (alpha-synuclein fibrils [4])
ACI-4317A4_1113D10 (bispecific antibody, V domains shown, biparatopic; Arm A ACI-7088-4317A4-Ab1, Arm B ACI-7067-1113D10-Ab1; engineered constant domains not specified) VH 1: EVQLQQSGAELVRPGASVKLSCTASGFNIKDDYMHWVKQRPEQGLEWIGWIDPENGDTEYASKFQGKATMTADTSSNTAYLQLSSLTSEDTAVYYCKTWGTTQALFPYWGQGTLVTVSA VL 1: DIVMTQSQKFMYTSVGDRVSITCKASQNVGNAVGWYQQKAGQSPKLLIHSASNRYTGVPDRFTGTGSGTDFTLTINNMQSEDLADYFCQQYRSYPLTFGAGTKLELK VH 2: EVQLVESGGGLVQPKGSLKLSCAASGFTFNTYALHWVRQAPGKGLEWVARIRSKSSNYATYYADSVKDRFTISRDDSQSMLYLQMNNLKTEDTGMYYCVRGGVSPFDYWGQGTTLTVSS VL 2: QIVLTQSPAIMSASPGEKVTMTCSASSSVSYMHWYQQKSGTSPKRWIYDTSKLASGVPARFSGSGSGTSYSLTISSMEAEDSATYYCQQWSNNPPTFGGGTKLEIK | 0.000675 s⁻¹ | 1.39e+06 M⁻¹ s⁻¹ | 7.77e-06 s⁻¹ | 49200 M⁻¹ s⁻¹ | 0.486 nM | 0.158 nM
ACI-1108H1_4303A3 (bispecific antibody, V domains shown, biparatopic; Arm A ACI-7067-1108H1-Ab1, Arm B ACI-7088-4303A3-Ab1; engineered constant domains not specified) VH 1: EVKLVESGGGLVQPGGSMKLSCTASGFTFSDAWMNWVRQSPEKGLEWVAEIRNKAHNHATNYAESVKGRFTISGDDSKSSVYLQMNNLRAEDTGIYYCTIYSFWGQGTLVTVSA VL 1: SIVMTQTPKFLLVSAGDRVTITCKASQSVTNYVAWYHQKPGQSPKLLIYSASNRYSGVPDRFTGSGYGTDFTFTINTVQTEDLAVYFCQQDYRIPYTFGGGTKLEIK VH 2: QVQLQQSGAELVRPGASVTLSCKASGYTFTDYEMHWVKQTPVHGLEWIGVIDPETGGAVQNQKFKGKAILTADNSSSTAYMDLRSLTSEDSAVYNCAMGAALRLAYWGQGTLVTVSS VL 2: DVLMTQTPLSLPVSLGDQASISCRSSQSIVHSNGNSYLEWYLQKPGQSPKLLIYKVSNRFSGVPDRFSGSGSGTDFTLKINRVEAEDLGVYYCFQGSHVPFTFGSGTKLEIK | 0.00129 s⁻¹ | 1.43e+06 M⁻¹ s⁻¹ | 1.49e-05 s⁻¹ | 73600 M⁻¹ s⁻¹ | 0.903 nM | 0.203 nM
ACI-1101C8_4317A4 (bispecific antibody, V domains shown, biparatopic; Arm A ACI-7067-1101C8-Ab2, Arm B ACI-7088-4317A4-Ab1; engineered constant domains not specified) VH 1: EVQLVESGGGLVQPKGSLKLSCAASGFSFNIYAMNWVRQAPGKGLEWVARIRSKSNNYATYYADSVKDRFTISRADSESMLYLQMNNLKTEDTAMYYCVRVGLRFYAMDYWGQGTSVTVSS VL 1: DVLMTQTPLSLPVSLGDQASISCRSSQSIVHSNGNTYLEWYLQKPGQSPKLLIYKVSNRFSGVPDRFSGSGSGTDFTLKISRVEAEDLGVYYCFQGSQGPLTFGAGTKLELK VH 2: EVQLQQSGAELVRPGASVKLSCTASGFNIKDDYMHWVKQRPEQGLEWIGWIDPENGDTEYASKFQGKATMTADTSSNTAYLQLSSLTSEDTAVYYCKTWGTTQALFPYWGQGTLVTVSA VL 2: DIVMTQSQKFMYTSVGDRVSITCKASQNVGNAVGWYQQKAGQSPKLLIHSASNRYTGVPDRFTGTGSGTDFTLTINNMQSEDLADYFCQQYRSYPLTFGAGTKLELK | 0.00158 s⁻¹ | 2.35e+06 M⁻¹ s⁻¹ | 3e-05 s⁻¹ | 69300 M⁻¹ s⁻¹ | 0.671 nM | 0.433 nM
ACI-1101C8_4301E12 (bispecific antibody, V domains shown, biparatopic; Arm A ACI-7067-1101C8-Ab2, Arm B ACI-7088-4301E12-Ab2; engineered constant domains not specified) VH 1: EVQLVESGGGLVQPKGSLKLSCAASGFSFNIYAMNWVRQAPGKGLEWVARIRSKSNNYATYYADSVKDRFTISRADSESMLYLQMNNLKTEDTAMYYCVRVGLRFYAMDYWGQGTSVTVSS VL 1: DVLMTQTPLSLPVSLGDQASISCRSSQSIVHSNGNTYLEWYLQKPGQSPKLLIYKVSNRFSGVPDRFSGSGSGTDFTLKISRVEAEDLGVYYCFQGSQGPLTFGAGTKLELK VH 2: DVQLQESGPGLVKPSQSLSLTCSVTGYSITSGYYWNWIRQFPGNKLEWMGYISDDGSKNYNPSLKNRISITRDTSKNQLFMKLNSVTTEDTATYYCARGDSRLGQGTLVTVSA VL 2: not shown | 0.000444 s⁻¹ | 224000 M⁻¹ s⁻¹ | 9.65e-07 s⁻¹ | 44900 M⁻¹ s⁻¹ | 1.98 nM | 0.0215 nM
ACI-1101C8_5A12 (bispecific antibody, V domains shown, biparatopic; Arm A ACI-7067-1101C8-Ab2, Arm B ACI-8033-5A12-Ab1; engineered constant domains not specified) VH 1: EVQLVESGGGLVQPKGSLKLSCAASGFSFNIYAMNWVRQAPGKGLEWVARIRSKSNNYATYYADSVKDRFTISRADSESMLYLQMNNLKTEDTAMYYCVRVGLRFYAMDYWGQGTSVTVSS VL 1: DVLMTQTPLSLPVSLGDQASISCRSSQSIVHSNGNTYLEWYLQKPGQSPKLLIYKVSNRFSGVPDRFSGSGSGTDFTLKISRVEAEDLGVYYCFQGSQGPLTFGAGTKLELK VH 2: QVHLKQSGADLVRPGASVKLSCKASGYTFTDYYINWVKQRPGQGLEWIARIYPGSGNTYYNEKFKGRATLSAEKSSTTAYMQLSSLTSEDSAVYFCVVGYYGAWGQGTTLTVSS VL 2: DVVMTQTPLSLPVSLGDQASISCRSSQSLVHSNGKTHLHWYLQKPGQSPKLLIYKVSNRFSGVPDRFSGSGSGTDFTLKISRVEAEDLGVYFCSQSTHVPWTFGGGTKLEIK | 0.0042 s⁻¹ | 1.1e+06 M⁻¹ s⁻¹ | 6.13e-05 s⁻¹ | 46700 M⁻¹ s⁻¹ | 3.82 nM | 1.31 nM
ACI-3112H1_3108C10 (bispecific antibody, V domains shown, biparatopic; Arm A ACI-7079-3112H1-Ab1, Arm B ACI-7079-3108C10-Ab2; engineered constant domains not specified) VH 1: EVQLQQSGPELVKPGASVKISCKASGYTFSDYFMNWVKQSHGKSLEWIGDINPNNGGSSYIQKFKGKATLTVDKSSTTAYMELRSLTSEDSAVYYCARGSNYAMDSWGQGTSVTVSS VL 1: DIVMSQSPSSLAVSAGEKVTMSCKSSQSLLNSRTRKNYLAWYQQKPGQSPKLLIYWASTRESGVPDRFTGSGSGTDFTLTISSVQAEDLAVYYCKQSYDLWTFGGGTKLEIK VH 2: ELQLVESGGGLVRPGGSLKLSCATSGFTFRNYAMSWVRQTPAKRLEWVATISDGGTYTFYSDNVKGRFTISRDNVKNTLYLQMSHLKSEDTAMYYCSRAGSGHWGQGTTLTVSS VL 2: not shown | 0.0162 s⁻¹ | 5540 M⁻¹ s⁻¹ | 0.000472 s⁻¹ | 7650 M⁻¹ s⁻¹ | 2920 nM | 61.7 nM

Continued by falling Kd [3], values first:

koff [1] | kon [1] | koff (alpha-synuclein fibrils [2]) | kon (alpha-synuclein fibrils [2]) | Kd [3] | Kd (alpha-synuclein fibrils [4]) | Binder
0.147 s⁻¹ | 1.37e+06 M⁻¹ s⁻¹ | 0.000219 s⁻¹ | 13100 M⁻¹ s⁻¹ | 107 nM | 16.7 nM | ACI-27D8_4301D5 (bispecific antibody, V domains shown, biparatopic; Arm A ACI-8033-27D8-Ab1, Arm B ACI-7088-4301D5-Ab2; engineered constant domains not specified) VH 1: EVQLVESGGGLVQPKGSLKLSCAASGFTFNTYAMNWVRQAPGKGLEWVARIRSKSNNFATYYADSVKDRFTISRDESESMLYLQMNNLKAEDTAMYYCVRSFDYWGQGTTLTVSS VL 1: DIKMTQSPSSMYASLGERVTITCKASQDINSYLSWFQQKPGKSPKTLIYRAKRLVDGVPSRFSGSGSGQDYSLTISSLEYEDMGIYYCLQYDEFPFTFGSGTKLEIK VH 2: QVQLQQSGPELVRPGASVKISCKASGYRFTSYYIHWVKQRPGQGLEWIGWIYPGSDNTKHNDKFKGKATLTADTSSSTAYMQLSSLTSEDSAVYFCARDYDVGFGYWGQGTLVTVSS VL 2: not shown
0.0361 s⁻¹ | 1.04e+06 M⁻¹ s⁻¹ | 0.000418 s⁻¹ | 8220 M⁻¹ s⁻¹ | 34.8 nM | 50.8 nM | ACI-4301H3_3108C10 (bispecific antibody, V domains shown, biparatopic; Arm A ACI-7088-4301H3-Ab2, Arm B ACI-7079-3108C10-Ab2; engineered constant domains not specified) VH 1: EVQLQQSGPELVKPGASVKISCKASGYTFADYFMNWVKQSHGKSLEWIGDINPNNGGTTYNQKFKGKATLTVDKSSNTAYMELRSLTSEDSAVYYCARGRNYAMDYWGQGTSVTVSS VL 1: DIVMSQSPSSLAVSAGEKVTMSCKSSQSLLNSRTRKNYLAWYQQKPGQSPKLLIYSASTRESGVPDRFTGSGFGTDFTLTISSVQAEDLAVYYCKQSYDLWTFGGGTKLEIK VH 2: ELQLVESGGGLVRPGGSLKLSCATSGFTFRNYAMSWVRQTPAKRLEWVATISDGGTYTFYSDNVKGRFTISRDNVKNTLYLQMSHLKSEDTAMYYCSRAGSGHWGQGTTLTVSS VL 2: not shown
8.05 s⁻¹ | 9.13e+08 M⁻¹ s⁻¹ | 0.000113 s⁻¹ | 10500 M⁻¹ s⁻¹ | 8.82 nM | 10.8 nM | ACI-3108C10_5A12 (bispecific antibody, V domains shown, biparatopic; Arm A ACI-7079-3108C10-Ab2, Arm B ACI-8033-5A12-Ab1; engineered constant domains not specified) VH 1: ELQLVESGGGLVRPGGSLKLSCATSGFTFRNYAMSWVRQTPAKRLEWVATISDGGTYTFYSDNVKGRFTISRDNVKNTLYLQMSHLKSEDTAMYYCSRAGSGHWGQGTTLTVSS VL 1: not shown VH 2: QVHLKQSGADLVRPGASVKLSCKASGYTFTDYYINWVKQRPGQGLEWIARIYPGSGNTYYNEKFKGRATLSAEKSSTTAYMQLSSLTSEDSAVYFCVVGYYGAWGQGTTLTVSS VL 2: DVVMTQTPLSLPVSLGDQASISCRSSQSLVHSNGKTHLHWYLQKPGQSPKLLIYKVSNRFSGVPDRFSGSGSGTDFTLKISRVEAEDLGVYFCSQSTHVPWTFGGGTKLEIK
0.0283 s⁻¹ | 7.94e+06 M⁻¹ s⁻¹ | 5.8e-05 s⁻¹ | 65400 M⁻¹ s⁻¹ | 3.57 nM | 0.887 nM | ACI-27D8_4317A4 (bispecific antibody, V domains shown, biparatopic; Arm A ACI-8033-27D8-Ab1, Arm B ACI-7088-4317A4-Ab1; engineered constant domains not specified) VH 1: EVQLVESGGGLVQPKGSLKLSCAASGFTFNTYAMNWVRQAPGKGLEWVARIRSKSNNFATYYADSVKDRFTISRDESESMLYLQMNNLKAEDTAMYYCVRSFDYWGQGTTLTVSS VL 1: DIKMTQSPSSMYASLGERVTITCKASQDINSYLSWFQQKPGKSPKTLIYRAKRLVDGVPSRFSGSGSGQDYSLTISSLEYEDMGIYYCLQYDEFPFTFGSGTKLEIK VH 2: EVQLQQSGAELVRPGASVKLSCTASGFNIKDDYMHWVKQRPEQGLEWIGWIDPENGDTEYASKFQGKATMTADTSSNTAYLQLSSLTSEDTAVYYCKTWGTTQALFPYWGQGTLVTVSA VL 2: DIVMTQSQKFMYTSVGDRVSITCKASQNVGNAVGWYQQKAGQSPKLLIHSASNRYTGVPDRFTGTGSGTDFTLTINNMQSEDLADYFCQQYRSYPLTFGAGTKLELK
